Laboratory results published in US20220251236A1 (Boehringer Ingelheim, published 2022).

T1: Human DLL3-His (human, UniProt Q9NYJ7 27-492)
T1 construct: also called huDLL3-His; hu DLL3
T1 sequence: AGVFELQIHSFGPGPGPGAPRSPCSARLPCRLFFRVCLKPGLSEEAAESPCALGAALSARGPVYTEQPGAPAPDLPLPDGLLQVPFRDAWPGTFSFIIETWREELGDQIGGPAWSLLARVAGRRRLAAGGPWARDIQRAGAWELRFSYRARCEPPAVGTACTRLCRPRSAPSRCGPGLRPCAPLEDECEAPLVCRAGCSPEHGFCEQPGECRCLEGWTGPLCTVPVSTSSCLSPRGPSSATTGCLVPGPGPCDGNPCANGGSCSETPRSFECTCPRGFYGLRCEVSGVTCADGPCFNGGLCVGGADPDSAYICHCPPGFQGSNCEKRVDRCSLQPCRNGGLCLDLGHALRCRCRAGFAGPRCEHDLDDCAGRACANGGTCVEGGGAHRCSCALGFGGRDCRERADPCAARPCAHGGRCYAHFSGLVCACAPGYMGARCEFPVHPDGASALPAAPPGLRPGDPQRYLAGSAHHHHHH

T2: human DLL3 (endogenous, on SCLC cell lines NCI-H82 and SHP77 and in SCLC tissue) (human, UniProt Q9NYJ7 27-618)
T2 construct: whole, on cells; also called SCLC cell lines expressing DLL3
T2 sequence (looked up): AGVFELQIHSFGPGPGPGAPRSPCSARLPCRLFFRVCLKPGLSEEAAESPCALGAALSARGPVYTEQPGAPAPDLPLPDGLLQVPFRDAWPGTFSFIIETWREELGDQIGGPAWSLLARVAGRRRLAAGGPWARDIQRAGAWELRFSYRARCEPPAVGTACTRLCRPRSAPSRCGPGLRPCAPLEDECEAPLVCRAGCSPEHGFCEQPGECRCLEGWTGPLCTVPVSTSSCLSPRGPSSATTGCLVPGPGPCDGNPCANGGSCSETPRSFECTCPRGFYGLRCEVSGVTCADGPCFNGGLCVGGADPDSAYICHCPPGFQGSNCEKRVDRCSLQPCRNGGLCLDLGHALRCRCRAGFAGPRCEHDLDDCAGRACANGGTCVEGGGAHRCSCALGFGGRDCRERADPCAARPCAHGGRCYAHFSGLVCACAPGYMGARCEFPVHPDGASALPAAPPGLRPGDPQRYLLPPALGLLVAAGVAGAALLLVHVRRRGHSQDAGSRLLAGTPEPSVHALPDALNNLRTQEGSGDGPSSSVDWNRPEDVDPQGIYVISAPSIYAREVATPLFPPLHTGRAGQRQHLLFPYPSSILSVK

B1: DLL3#17/CD3#1 (bispecific antibody, human IgG1, kappa, lambda, L234A L235A)
chain 1: DIQMTQSPASLAASVGETVTITCRASENIYYSLAWYQQKQGKSPQLLIYNTNSLEDGVPSRFSGSGSGTQYSMKINSMQPEDTATYFCKQAYDFPLTFGAGTKLELKRTVAAPSVFIFPPSDEQLKSGTASVVCLLNNFYPREAKVQWKVDNALQSGNSQESVTEQDSKDSTYSLSSTLTLSKADYEKHKVYACEVTHQGLSSPVTKSFNRGECGGGGSEGKSSGSGSESKSTEGKSSGSGSESKSTGGGGSQIQLQQSGPEVVKPGASVKISCKASGYTFISYYIHWVKQRPGQGLEWIGWIYPGDGSTNNNEKFKGKTTLTADKSSSTAYMLLSSLTSEDSAVYFCARGEGNAMDDWGQGTSVTVSSASTKGPSVFPLAPSSKSTSGGTAALGCLVKDYFPEPVTVSWNSGALTSGVHTFPAVLQSSGLYSLSSVVTVPSSSLGTQTYICNVNHKPSNTKVDKRVEPKSCDKTHTCPPCPAPEAAGGPSVFLFPPKPKDTLMISRTPEVTCVVVDVSHEDPEVKFNWYVDGVEVHNAKTKPREEQYNSTYRVVSVLTVLHQDWLNGKEYKCKVSNKALPAPIEKTISKAKGQPREPQVYTLPPSREEMTKNQVSLWCLVKGFYPSDIAVEWESNGQPENNYKTTPPVLDSDGSFFLYSKLTVDKSRWQQGNVFSCSVMHEALHNHYTQKSLSLSPG
chain 2: EAVVTQEPSLTVSPGGTVTLTCRSSTGAVTTSNYANWVQEKPGQLPRGLIGGTNKRAPWVPARFSGSLLGGKAALTLSGAQPEDEAEYFCALWYSNLWVFGGGTKLTVLGQPKAAPSVTLFPPSSEELQANKATLVCLISDFYPGAVKVAWKADGSPVNTGVETTTPSKQSNNKYAASSYLSLTPEQWKSHRSYSCQVTHEGSTVEKTVAPAECSGGGGSEGKSSGSGSESKSTEGKSSGSGSESKSTGGGGSEVQLVESGGGLVQPGGSLKLSCAASGFTFNTYAMNWVRQAPGKGLEWVARIRSKYNNYATYYADSVKDRFTISRDDSKNTAYLQMNNLKTEDTAVYYCVRHGNFGNSYVSWFAYWGQGTLVTVSAASTKGPSVFPLAPSSKSTSGGTAALGCLVKDYFPEPVTVSWNSGALTSGVHTFPAVLQSSGLYSLSSVVTVPSSSLGTQTYICNVNHKPSNTKVDKRVEPKSCDKTHTCPPCPAPEAAGGPSVFLFPPKPKDTLMISRTPEVTCVVVDVSHEDPEVKFNWYVDGVEVHNAKTKPREEQYNSTYRVVSVLTVLHQDWLNGKEYKCKVSNKALPAPIEKTISKAKGQPREPQVYTLPPSREEMTKNQVSLSCAVKGFYPSDIAVEWESNGQPENNYKTTPPVLDSDGSFFLVSKLTVDKSRWQQGNVFSCSVMHEALHNRFTQKSLSLSPG
notes: Heterodimer of one DLL3 chain and one CD3 chain (scFab-Fc, knob-in-hole)
B2: DLL3#13/CD3#1 (bispecific antibody, human IgG1, kappa, lambda, L234A L235A)
chain 1: DVLMTQTPLSLPVSLGDQAAISCRSSQSIVHSNGNTYLEWYLQKPGQSPKVLIYKVSNRFSGVPDRFSGSGSGTDFTLKISRVEAEDLGVYYCFQGSHVPYTFGGGTKLEIKRTVAAPSVFIFPPSDEQLKSGTASVVCLLNNFYPREAKVQWKVDNALQSGNSQESVTEQDSKDSTYSLSSTLTLSKADYEKHKVYACEVTHQGLSSPVTKSFNRGECGGGGSEGKSSGSGSESKSTEGKSSGSGSESKSTGGGGSQIQLVQSGPELKKPGETVKISCKASGYTFTNYGVTWVKQAPGKGLKWMGWINTYSGAPTYADDFNGRFALSLETSASTAYLQINNLKNEDTATYFCARLDDYDLYYFDYWGQGTALTVSSASTKGPSVFPLAPSSKSTSGGTAALGCLVKDYFPEPVTVSWNSGALTSGVHTFPAVLQSSGLYSLSSVVTVPSSSLGTQTYICNVNHKPSNTKVDKRVEPKSCDKTHTCPPCPAPEAAGGPSVFLFPPKPKDTLMISRTPEVTCVVVDVSHEDPEVKFNWYVDGVEVHNAKTKPREEQYNSTYRVVSVLTVLHQDWLNGKEYKCKVSNKALPAPIEKTISKAKGQPREPQVYTLPPSREEMTKNQVSLWCLVKGFYPSDIAVEWESNGQPENNYKTTPPVLDSDGSFFLYSKLTVDKSRWQQGNVFSCSVMHEALHNHYTQKSLSLSPG
chain 2: B1 chain 2
notes: as for B1
B3: DLL3#18/CD3#1 (bispecific antibody, human IgG1, kappa, lambda, L234A L235A)
chain 1: DIQMTQSPASLAASVGETVTITCRASENIYYSLAWYQQKQGKSPQLLIYNANSLEDGVPSRFSGSGSGTQYSMKINNMQPEDTATYFCKQAYDVPLTFGAGTKLELKRTVAAPSVFIFPPSDEQLKSGTASVVCLLNNFYPREAKVQWKVDNALQSGNSQESVTEQDSKDSTYSLSSTLTLSKADYEKHKVYACEVTHQGLSSPVTKSFNRGECGGGGSEGKSSGSGSESKSTEGKSSGSGSESKSTGGGGSQVQLQQSGPDLVKPGASVKMSCEASGYTFTAYFIHWVKQKPGQGLEWIGYIDPFNDDTNYNVKFKGKATLTSDTSSSIAYMELSSLTSEDSSFYYCARGTSATLDYWGHGTTLTVSSASTKGPSVFPLAPSSKSTSGGTAALGCLVKDYFPEPVTVSWNSGALTSGVHTFPAVLQSSGLYSLSSVVTVPSSSLGTQTYICNVNHKPSNTKVDKRVEPKSCDKTHTCPPCPAPEAAGGPSVFLFPPKPKDTLMISRTPEVTCVVVDVSHEDPEVKFNWYVDGVEVHNAKTKPREEQYNSTYRVVSVLTVLHQDWLNGKEYKCKVSNKALPAPIEKTISKAKGQPREPQVYTLPPSREEMTKNQVSLWCLVKGFYPSDIAVEWESNGQPENNYKTTPPVLDSDGSFFLYSKLTVDKSRWQQGNVFSCSVMHEALHNHYTQKSLSLSPG
chain 2: B1 chain 2
notes: as for B1

Each binder was assayed against T3, Human CD3 E+G HuFc-6xHis (human) (assay: SPR (ProteOn XPR36), HuCD3E_HuCD3G-Fc amine-coupled, bispecific as analyte, Example 4B).
T3 construct: also called hu CD3εγ-Fc
Procedure, shortened: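 SPR kinetics with the bispecific constructs flowed as analyte over a directly amine-coupled (pH 4.5 acetate) human CD3εγ-Fc surface. Association runs 600 s and dissociation 1800 s, at 30 μl/min in PBS-T-EDTA.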

T3 sequence (chain, as listed by the source limits assumed): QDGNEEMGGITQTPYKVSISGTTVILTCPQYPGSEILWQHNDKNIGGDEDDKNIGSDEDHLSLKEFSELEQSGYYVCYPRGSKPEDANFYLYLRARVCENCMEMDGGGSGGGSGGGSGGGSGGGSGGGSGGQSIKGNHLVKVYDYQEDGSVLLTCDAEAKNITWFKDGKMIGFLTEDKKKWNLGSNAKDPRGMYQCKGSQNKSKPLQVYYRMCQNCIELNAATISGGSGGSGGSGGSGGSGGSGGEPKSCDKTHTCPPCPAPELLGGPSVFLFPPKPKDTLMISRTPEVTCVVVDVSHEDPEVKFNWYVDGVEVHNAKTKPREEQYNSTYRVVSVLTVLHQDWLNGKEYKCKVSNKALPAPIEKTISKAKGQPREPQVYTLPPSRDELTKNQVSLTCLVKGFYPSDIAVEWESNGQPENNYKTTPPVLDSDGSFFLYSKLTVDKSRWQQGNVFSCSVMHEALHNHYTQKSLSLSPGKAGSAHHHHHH

| Binder | Kd [nM] |
| --- | --- |
| B1 | 2 |
| B2 | 3 |
| B3 | 3 |

These binders were tested against T1, Human DLL3-His (assay: SPR (ProteOn XPR36), bispecific captured on protein A/G, hu DLL3 as analyte, Example 4B).
Procedure, shortened: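 Bispecific constructs captured on protein A/G for 200 s at 30 μl/min, baseline stabilized with PBS-T-EDTA. Human DLL3 analyte injected 300 s at 30 μl/min; dissociation followed for 1800 s.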

| Binder | Kd [nM] |
| --- | --- |
| B1 | < 0.02 |
| B2 | 0.023 |
| B3 | < 0.02 |

What follows are binders tested against T2, human DLL3 (endogenous, on SCLC cell …) (assay: flow cytometry titration on NCI-H82 cells, PE anti-human secondary, x-fold over background).
From the text: Cells (T cells or human SCLC cells) were stained with increasing concentrations of two-step purified DLL3/CD3 binding proteins with increasing concentrations in FACS buffer (PBS/0.5% BSA/0.05% sodium azide). Bound molecules were detected with PE-conjugated anti-human secondary antibody (Sigma-Aldrich, #P8047).

| Binder | EC50 (read off the curve) [nM] |
| --- | --- |
| B1 | ~1 |
| B2 | ~1 |
| B3 | ~1 |
